Test results taken from patent US20230303681A1 (published 2023).
Where “and” joins values, the source holds several entries; their conditions need not be identical. Equal entries are not always repeated.

What was measured:
human TMEM106B [1] = target: T1, human TMEM106B (human, UniProt Q9NUM4 2-274); test: FACS HeLa;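 also: flow cytometry of cells incubated with hybridoma supernatant or purified antibody at 10 µg/ml for 1 h on ice, propidium iodide–positive dead cells gated out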
T1 construct: Full-length, on transiently transfected HEK293 cells, or natively expressed on HeLa, U251 and A549 cells; also called huTMEM106B; huTMEM
Protocol: (§1) All cells were cultured in either T75 or T150 flasks. […] The enzyme was quenched by addition of fresh media, and the cells were then distributed into 96-well plates for FACS analysis.
(§2) FACS analysis was performed as follows. Each cell type was aliquoted in 96-well round bottom plates (2x10^5 cells per well), washed once with FACS buffer (PBS + 2% FBS + 1 mM EDTA), and incubated with 50 µL of hybridoma supernatant or purified antibody (10 µg/ml in FACS buffer) on ice for 1 hour. […] Following this secondary incubation, the cells were again washed 2x with ice-cold FACS buffer and resuspended in a final volume of 50 µL of FACS buffer + 0.25 µl/well propidium iodide (Fisher Scientific # BDB556463). Analysis was performed on a FACSCanto system (BD Biosciences) or iQue (Intellicyt), with sort gates drawn to exclude dead (i.e., propidium iodide positive) cells.
(§3) Data is presented as mean fluorescence intensity (MFI).

human TMEM106B [2] = target: T1, human TMEM106B; test: FACS U251;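 also: flow cytometry of cells exposed to antibody (purified at 10 µg/mL, or hybridoma supernatant) for 1 h on ice, with propidium iodide-positive dead cells gated out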
Protocol: as §1, §2, §3

mouse TMEM106B [3] = target: T2, mouse TMEM106B (mouse, UniProt Q80X71 2-275); test: FACS Neuro2a;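 also: flow cytometry of cells stained with antibody or hybridoma supernatant (purified antibody at 10 µg/ml) for 1 h on ice, propidium iodide–positive dead cells gated out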
T2 construct: on transiently transfected HEK293 cells, or natively expressed on mouse Neuro2a cells; also called moTMEM106B; murine TMEM106B
Protocol: as §1, §2, §3

GST (Pierce) [4] = target: T3, GST (Pierce) (UniProt P08515 1-218 = GST, limits assumed); test: ELISA, coated GST;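 also: ELISA on plates coated with GST alone at 1-10 µg/ml, antibodies applied at 100-1000x dilution, bound antibody detected by peroxidase substrate colour after acid stop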
T3 construct: control for the GST part of the fusion protein; also called GST protein; Glutathione-S-transferase
Protocol: Briefly, 96-well polystyrene plates were coated with 1-10 µg/ml of recombinant GST-TMEM106B-truncated protein or GST (Pierce) in PBS either at 370 Cfor 1-4 hours or overnight at 4 °C. Coated plates were then blocked with 5% BSA for 1-hour, washed 3×150 µL in TBST (Tris-buffered saline + 0.1% Tween20), and then the antibodies were added at various dilutions (100-1000x) in PBS. After 1-hour incubation (room temperature, with shaking), the plates were washed 3x150 µL in TBST. […] After a final set of washes (3×150µL in TBST), 100 µL of peroxidase substrate was added for 1 minute; the reaction was then quenched with 2N sulfuric acid (100 µL).

human TMEM106B [5] = target: T1, human TMEM106B; test: FACS A549, 1 ug/ml
human TMEM106B [6] = target: T1, human TMEM106B; test: FACS A549, 10 ug/ml
human TMEM106B [7] = target: T1, human TMEM106B; test: FACS, HEK293 transfectants;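 as to fold over negative controls: hybridoma supernatants incubated 30 min on ice with human TMEM106B-expressing HEK293 cells, binding read as anti-mouse-APC median fluorescence on live cells, relative to secondary-antibody-only wells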;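 as to fold-change over parental HEK293: flow cytometry binding of hybridoma supernatants to HEK293 cells transiently expressing human, cyno or mouse TMEM106B, read as anti-mouse-APC median fluorescence, live cells only, 30 min on ice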
Protocol: Initial screening of the anti-TMEM106B hybridomas was performed as follows.
For screening of the hybridoma cell culture supernatants, humanTMEM106B-transfected HEK293 cells were aliquoted in 96-well round bottom plates (2x10^5 cells per well) and incubated with 50 µL of hybridoma cell culture supernatant on ice for 30 minutes. […] Cell sorting was performed on a FACS Canto system (BD Biosciences) or iQue (Intellicyt), with sort gates drawn to exclude dead (i.e., propidium iodide-positive) cells. Median fluorescence intensity (MFI) of anti-mouse-APC MFI on TMEM106B+ HEK293 cells was calculated for each clone, and those displaying a signal of at least 2-fold over background compared to a secondary-antibody only well were taken forward for further analysis and characterization.

human TMEM106B [8] = target: T1, human TMEM106B; test: FACS HEK+huTMEM, 10 ug/ml;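 also: purified mouse IgG antibodies at 10 µg/ml bound to HEK293 cells transiently expressing human TMEM106B, measured by flow cytometry as median fluorescence intensity of propidium iodide negative live cells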
Protocol: (§4) Purified anti-TMEM106B antibodies were evaluated for their binding affinity to various TMEM106B-expressing cell lines including HEK293 transiently transfected with human/cyno/mouse TMEM106B, as well as HeLa cells and A549 cells. Antibodies tested for this experiment were mouse IgGs purified from hybridoma supernatant. Affinity binding to cells was determined as follows. Briefly, 1x10^5 cells were aliquoted per well in 96-well round bottom plates and incubated with 50 µL of purified anti-TMEM106B antibody at various concentrations (10x dilutions starting at 10 µg/ml) in FACS buffer (PBS + 2% FBS + 1 mM EDTA). […] Sorting was performed on a iQue (Intellicyt), with sort gates drawn to exclude dead (propidium iodide +) cells. Binding data was analyzed using median fluorescent intensity (MFI) and graphed in Prism. Values presented are MFI.

human TMEM106B [9] = target: T1, human TMEM106B; test: FACS, HEK293 transfectants; remark: listed apart in the source;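 as to fold over negative controls: hybridoma supernatants incubated 30 min on ice with human TMEM106B-expressing HEK293 cells, binding read as anti-mouse-APC median fluorescence on live cells, relative to secondary-antibody-only wells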;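 as to fold-change over parental HEK293: flow cytometry binding of hybridoma supernatants to HEK293 cells transiently expressing human, cyno or mouse TMEM106B, read as anti-mouse-APC median fluorescence, live cells only, 30 min on ice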
Protocol: (§5) For screening of the hybridoma cell culture supernatants, humanTMEM106B-transfected HEK293 cells were aliquoted in 96-well round bottom plates (2x10^5 cells per well) and incubated with 50 µL of hybridoma cell culture supernatant on ice for 30 minutes. […] Median fluorescence intensity (MFI) of anti-mouse-APC MFI on TMEM106B+ HEK293 cells was calculated for each clone, and those displaying a signal of at least 2-fold over background compared to a secondary-antibody only well were taken forward for further analysis and characterization.

[10] = target: T4, cynomolgus (cyno) TMEM106B (cynomolgus, UniProt Q9NUM4 2-274 (human entry)); test: FACS, HEK293 transfectants;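 also: flow cytometry binding of hybridoma supernatants to HEK293 cells transiently expressing human, cyno or mouse TMEM106B, read as anti-mouse-APC median fluorescence, live cells only, 30 min on ice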
T4 construct: on transiently transfected HEK293 cells
Protocol: as §5

mouse TMEM106B [11] = target: T2, mouse TMEM106B; test: FACS, HEK293 transfectants;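 also: flow cytometry binding of hybridoma supernatants to HEK293 cells transiently expressing human, cyno or mouse TMEM106B, read as anti-mouse-APC median fluorescence, live cells only, 30 min on ice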
Protocol: as §5

human TMEM106B [12] = target: T1, human TMEM106B; test: FACS HEK+huTMEM, 0.1 ug/ml;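 also: flow cytometry binding of purified mouse IgG antibodies to HEK293 cells transiently expressing TMEM106B, read as median fluorescence intensity with propidium iodide positive dead cells gated out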
Protocol: as §4

human TMEM106B [13] = target: T1, human TMEM106B; test: FACS HEK+huTMEM, 1.0 ug/ml
Protocol: as §4

human TMEM106B [14] = target: T1, human TMEM106B; test: FACS HEK+huTMEM, 0.01 ug/ml
[15] = target: T5, GST-fusion human TMEM106B truncated (human); test: epitope binning, array SPR (Community 3, Bin 5)
T5 construct: also called GST-TMEM106B-truncated protein; GST-TMEM106B (truncated)
Protocol: Epitope binning of the anti-TMEM106B antibodies was performed by Carterra (Salt Lake City, Nevada, USA) using a pre-mix epitope binning approach.

human TMEM106B [16] = target: T1, human TMEM106B; test: FACS A549
GST (Pierce) [17] = target: T3, GST (Pierce); test: array SPR, Ab immobilised
[18] = target: T5, GST-fusion human TMEM106B truncated; test: array SPR, Ab immobilised;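 also: antibodies amine-coupled on an MX-96 chip, antigen flowed at 500 nM top concentration in 5-fold serial dilutions, GST alone run as nonspecific-binding control, duplicate measurements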
Protocol: Binding kinetic characterization of the purified antibodies was performed by Carterra using a proprietary array SPR instrument (MX-96) as follows. Briefly, antibodies were prepared by diluting to 5 µg/ml in 10 mM Acetate, pH 4.5 (Carterra), at 150 µL/well and then made an additional dilution at 1:10 from there by titrating 11 µl into 100 µL. […] The chip was activated with 18 mM EDC (Sigma Bioxtra) and 4.5 mM S-NHS (Thermo Fisher) diluted in 100 mM MES, pH 5.5, for 7 minutes, and then antibodies were coupled for 10 minutes at 45 µL/minute. After coupling, the chip was returned to the MX-96 and quenched for 7 minutes using 1 M Ethanolamine pH 8.5 (Carterra).
Printed antibodies were profiled for their ability to bind GST-TMEM106B (truncated) protein (described above). Briefly, GST-TMEM106B (truncated) antigen was diluted to 18 µg/ml (500 nM of 36 kDa fusion protein) by mixing 2.7 µL of 2.0 mg/ml antigen into 298 µL Running buffer (HBS-EP+, Teknova with 1 mg/ml BSA, Sigma), and titrated 50 µl into 200 µl for 5-fold serial dilutions. In addition, binding to GST (Pierce) was assayed under the same conditions to determine the extent of any nonspecific binding of the anti-TMEM106B antibodies to GST portion of the TMEM106B-GST fusion protein. Duplicate measurements for each anti-TMEM106B antibody were taken to ensure reproducibility.

Row | Binder | MFI (human TMEM106B [1]) | MFI (human TMEM106B [2]) | MFI (mouse TMEM106B [3]) | binding result (GST (Pierce) [4]) | MFI (human TMEM106B [5]) | MFI (human TMEM106B [6]) | fold over negative controls (human TMEM106B [7]) [fold] | MFI (human TMEM106B [8]) | fold-change over parental HEK293 (human TMEM106B [9]) [fold] | fold-change over parental HEK293 [10] [fold] | fold-change over parental HEK293 (mouse TMEM106B [11]) [fold] | MFI (human TMEM106B [12]) | MFI (human TMEM106B [13]) | MFI (human TMEM106B [14]) | binding result [15] | MFI (human TMEM106B [16]) | binding result (GST (Pierce) [17]) | Kd [18] | koff [18] | kon [18]
1 | anti-TMEM106B antibody TM-31 (antibody, V domains shown, mouse IgG from hybridoma) VH: QVQLQQSGAELAKPGASVKVSCKASGYTFISYWMNWVKQRPGQGLEWIGYINPTSGYTRYNQKFKDKATLTADKSSSTAYMQLSSLTYEDSAVYYCARSPPTVVLIGYFDYWGQGTTLTVSS VL: DIKMTQSPSSMYASLGERVTFTCKASQDINSYLSWFQQKPGKSPKTLIYRGNGLVDGVPSRFSGSGSGQDYSLTISSLEYEDMGIYYCLQYDEFPFTFASGTKLEIK | 799 | 352 | 325 | no binding | 403 | 527 | > 2 | 6060 | 22.1 | 64.7 | 68.7 | 1390 | 3680 | 596 | no binding (tested: 55 nM antigen) | – | – | – | – | –
2 | anti-TMEM106B antibody TM-14 (antibody, V domains shown, mouse IgG from hybridoma) VH: QVQLQQSGPELVRPGTSVKVSCKASGYAFTNYLIEWVKQRPGQGLEWIGVINPGGGNTDYSEKFKDKATLTADKSSNTAYIQLSSLTSEDSAVYFCARSPYSSYVGYAVDYWGQGTSVTVSS VL: DIQMTQSPSSLSASLGERVSLTCRASQDIGSNLNWLQQEPDGTIKRLIYATSSLDSGVPKRFSGSRSGSDYSLTISSLESEDFVVYYCLQYASSPRTFGGGTRLEIK | 307 | 270 | 300 | no binding | 409 | 438 | > 2 | 1190 | 3.96 | 4.56 | 1.77 | 364 | 680 | 314 | no binding (tested: 55 nM antigen) | 896 | – | – | – | –
3 | anti-TMEM106B antibody TM-33 (antibody, V domains shown, mouse IgG from hybridoma) VH: EFQLQQSGPELVKPGASVKISCKASGYSFTDYNMNWVKQSNGKSLEWIGVINPNYGTTSYNQKFKGKATLTVDQSSSTAYMQLNSLTSEDSAVYYCASSYWGQGTLVTVSA VL: DIVMTQSQKFMSTTVGDRVSITCKASQNVGTAVAWYQQKPGQSPKLLIYSASNRYTGVPDRFTGSGSGTDFTLTISNMQSEDLADYFCQQYSSYPYTFGGGTKLEIK | 148 | 202 | 233 | no binding | 366 | 514 | > 2 | 12100 | 10.2 | 7.74 | 45.8 | 1750 | 5630 | 651 | no binding (tested: 55 nM antigen) | 298 | – | – | – | –
4 | anti-TMEM106B antibody TM-35 (antibody, V domains shown) VH: QVQLQQSGPELVRPGTSVKISCKAPGYTFTRHWMQWVRQRPGQGLEWIGEILPGSNNIYYNEKVKGKATLTVDTSSSTSYMQLSSLTSEDSAVYFCARSLYDYDGVFAYWGQGTLVTVSA VL: DVLMTQIPLSLPVSLGDQASISCRSSQSIVHRNGNTYLEWYLQKPGQSPKLLIYKVSNRFSGVPDRFSGSGSGTDFTLKISRVEAEDLGVYYCFQGSHVPYTFGGGTKLEIK | 241 | 370 | 181 | – | 3270 | 4200 | > 2 | 48700 | 11.5 | 14.7 | 1.04 | 22600 | 55400 | 4080 | – | 982 | no binding | 6 nM and 6.8 nM | 9e-05 s⁻¹ and 0.00011 s⁻¹ | 15000 M⁻¹ s⁻¹ and 16000 M⁻¹ s⁻¹
5 | anti-TMEM106B antibody TM-15 (antibody, V domains shown, mouse IgG from hybridoma) VH: QVQLQQPGAEFVRPGASVKLSCKASGYTFTNYWITWVKQRPGHGLEWIGDIYPGSGNSNYNESFKRKATLTVDTSSSTAYMHLSSQTSEDSAVYFCARKAYGGFPYWGQGTLVTVSA VL: DIQMTQSPASLSVSVGETVTITCRVSENIYNNLAWYQQKQEKSPQLLVFAATNLADGVPSRFSGSGSGTQFSLKINSLQSEDFGTYYCQHFWDTPFTFGSGTKLEIK | 660 | 382 | 470 | no binding | 650 | 1980 | > 2 | 63100 | 31.4 | 57.7 | 46.8 | 2060 | 14300 | 584 | no binding (tested: 55 nM antigen) | 938 | – | – | – | –
6 | anti-TMEM106B antibody TM-48 (antibody, V domains shown) VH: QVQLQQSGPELVKPGASVKLSCKASGYTFTSYDINWVKQRPGQGLEWIGWIYPRDGNTQYIEKLKGKATLTVDTSSSTAYMELHSLTSEDSAVYFCARWIFYAMDYWGQGTSVTVSS VL: DVLMTQTPLSLPVSLGNQASISCRSSQSIVHGNGNTYLEWYLQKPGQSPKLLIYKVSNRFSGVPDRFSGSGSGTDFTLKISRVEAEDLGVYYCFQGSHLPYTFGGGTKLEIK | 219 | 346 | 292 | – | 1580 | 2450 | > 2 | 38200 | 16.7 | 16.4 | 28.5 | 21600 | 39900 | 4050 | – | 677 | no binding | 3.1 nM and 3.9 nM | 5.3e-05 s⁻¹ and 5.6e-05 s⁻¹ | 17000 M⁻¹ s⁻¹ and 14000 M⁻¹ s⁻¹
7 | anti-TMEM106B antibody TM-6 (antibody, V domains shown, mouse IgG from hybridoma) VH: QVQLQQSGAELVKPGASVKLSCKASGYTFTEYTIHWVKQRSGQGLEWIGWFYPGSTYIDYNEKFKDKATLTADKSSSTVYLELSRLTSEDSAVYFCARHEEDYSNWFPFWGQGTLVTVSA VL: DIQMSQSSSYLSVSLGGRVTITCKASDHINNWLAWYQQKPGNAPRLLISGATSLETGVPSRFSGSGSGKDYTLSITSLQTEDVATYYCQQYWSSPYTFGGGTKLEIK | 520 | 304 | 371 | no binding | 418 | 544 | > 2 | 581 | 4.13 | 1.25 | 1.25 | 327 | 393 | 294 | no binding (tested: 55 nM antigen) | 1100 | – | – | – | –
8 | anti-TMEM106B antibody TM-8 (antibody, V domains shown, mouse IgG from hybridoma) VH: QIQLVQSGPELKKPGETVKISCKASGYTFTDYPMHWVKQAPGKGFKWMGVIYTDTGEPKYAEVFKGRFAFSLETSASTAYLQINNLKNEDTATYFCVRRLAYWGQGTLVTVSA VL: DIKMTQSPSSMYASLGERVTITCKASQDINSYLSWFQQKPGKSPKTLIFRANRLVDGVPSRFSGSGSGQDYSLTISSLEYEDMGIYYCLQYDEFPLTFGAGTKLEMK | 568 | 304 | 370 | no binding | 393 | 492 | > 2 | 465 | 2.1 | 2.62 | 1.63 | 305 | 317 | 301 | no binding (tested: 55 nM antigen) | 554 | – | – | – | –
